The text below walks through data of patent CN114456266A (dated 2022).

For test [1], the target named is T1, GST fusion with RAD21 cleavage site 2 peptide IEEPSR at the COOH terminus (also: fused to GST at N-terminal side).
T1 construct: E. coli extract of GST fused to the peptide near the RAD21 cleavage site; also called 肽段IEEPSR(切割位点2); not shown: GST (glutathione S-transferase) fusion partner, expressed in E. coli
T1 chain: {GST}-IEEPSR
Description: immunoblot, hybridoma ascites on E. coli extracts of GST-peptide fusions.

For test [2], the target named is T2, RAD21*M (predicted separase cleavage fragment of RAD21, recombinant, expressed in HEK-293 cells) (UniProt O60216 173-450).
T2 construct: domain: RAD21*M; Transiently expressed from a plasmid in HEK-293
T2 sequence (looked up): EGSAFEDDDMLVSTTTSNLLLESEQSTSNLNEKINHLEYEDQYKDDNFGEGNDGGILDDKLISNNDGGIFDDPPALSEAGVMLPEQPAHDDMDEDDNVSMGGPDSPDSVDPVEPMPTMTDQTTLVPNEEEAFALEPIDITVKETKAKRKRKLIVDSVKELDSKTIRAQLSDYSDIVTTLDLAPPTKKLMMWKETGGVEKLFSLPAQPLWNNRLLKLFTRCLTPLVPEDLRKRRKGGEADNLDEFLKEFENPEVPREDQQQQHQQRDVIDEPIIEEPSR
Description: immunoprecipitation by the standard ChIP procedure of recombinant protein from HEK-293 extracts.

Test [3] concerns the target T3, GST fusion with REC8 cleavage site 2 peptide PSEIEVPR at the COOH terminus (also: fused to GST at N-terminal side).
T3 construct: not shown: GST (glutathione S-transferase) fusion partner, expressed in E. coli
T3 chain: {GST}-PSEIEVPR
The experiment in a line: immunoblot, hybridoma ascites on E. coli extracts of GST-peptide fusions.

Ends that are not written are not given here.

B1: 抗RAD21新表位单克隆抗体IB22-S (antibody, mouse IgG2a, kappa, V domains shown)
VH: EVQLVESGGGLVQPRGSLKLSCAASGFTFNNYAMNWVRQAPGKGLEWVARIRSKSKNYAIYYADSVKDRFTISRDDSQTMLYLQMNNLKTEDTGMYYCVAPSYSGSSPFAYWGQGTLVTVSA
VL: DVLMTQTPLSLPVSLGDQASISCRSSQSFVHSNGNTYLEWYLQKPGQSPKLLIYKVSNRFSGVPDRFSGSGSGTDFTLKISRVEAEDLGVYYCFQGSHVPFTFGSGTKLEIKR
notes: Mouse hybridoma antibody (ascites used in blots); also called 1B22s
Take B1: the binding result in test [1] and in test [2] was “binds” throughout.

B2: 抗REC8新表位单克隆抗体IE22-D (antibody, V domains shown)
VH: EVQLQQSGAEVVKPGASVKLSCTASGFNIKDTYMHWVNQRPEQGLEWIGRNDPANGNSKYDPKFQGKATITADTSSNTAYLQLSSLTSEDTAVYYCARGVRQGAWFAYWGQGTLVTVSA
VL: DVLMTQTPLSLPVSLGDQASISCRSSQSIVHSNGNTYLEWYLQKPGQSPKLLIYKVSNRFSGVPDRFSGSGSGTDFTLKISRVEAEDLGVYYCFQGSHVFTFGAGTKLELKR
notes: Mouse hybridoma antibody (ascites used in blots); also called 1E22d
Regarding B2, in test [3], the binding result was “binds”.
